# Experimental data from the nanobody polyreactivity screen of Harvey et al. (2022).
# Experiment: yeast display, Sf9 membrane polyspecificity reagent, FACS + sequencing; frameworks hold sequencing errors
# Procedure, shortened: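 Sorting gates, low and high (top ~1%), were placed on anti-HA fluorescence to track expression and on streptavidin fluorescence to track reagent binding. A clone's polyreactivity label is taken from the gate it came out of. The reagent was 10% biotinylated, detergent-solubilized Sf9 membrane, applied for 1 hour at 4 °C to galactose-induced yeast display cells.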
sequence,measurement,value
QVQLVVSGGGLVQAGGSLRLSCAASGRTFRSYAMGWYRQAPGKERELVAAISYGGGSTYYADSVKGRFTISRDNAKNTVYLQMNSLKPEDTAVYYCAAAVYKRGGYDYWGQGTQVTVSS,polyreactivity (PSR sort gate),high polyreactivity
QVQLVVSGGGLVQAGGSLRLSCAASGSFFPIYAMGWYRQAPGKERELVAAITSGGSTNYADSVKGRFTISRDNAKNTVYLQMNSLKPEDTAVYYCAAGGPDHADRYEYWGQGTQVTVSS,polyreactivity (PSR sort gate),low polyreactivity
QVQLVVSGGGLVQAGGSLRLSCAASGSIFNVYAMGWYRPAPGKARELVAAITNGDSTNYADSVKGRFTISRDTAKNTVYLQMHSLKPEDTAVYYCNARAPSEYYGLEYDDWGQGTQGTVSS,polyreactivity (PSR sort gate),low polyreactivity
QVQLVVSGGGLVQAGGSLRLSCAASGSIFRYYAMGWFRQAPGQERELVASITRGGTSTYYADSVKGRFTISRDNAKNTVYLQMNSLKPDDTAVYYCAAKGYLSRYDNWGLGTQVTVSS,polyreactivity (PSR sort gate),high polyreactivity
QVQLVVSGGGLVQAGGSLRLSCAASGSIFVSNAMGWYRQAPGKEREFVAAITGSGGSTYYADSVKGRFPISRDNAKNTVYLQMNSLKPEDTAVYYCNAGLIHFYAGNYDLYDYWGQGTQVTVSS,polyreactivity (PSR sort gate),low polyreactivity
QVQLVVSGGGLVQAGGSLRLSCAASGSILDSNAMGWYRQAPGKERELVAAITSGGSTYYADSVKGRFTISRDNAKNTVYLQMNSLKPEDTAVYYCNANGVQYFLYGYWGQGTQVTVSS,polyreactivity (PSR sort gate),low polyreactivity
QVQLVVSGGGLVQAGGSLRLSCAASGYTFDDYAMAWYRQAPGKERELVAAISRGGSTYYADSVKGRFTISRDNAKNTVYLQMNSLIPEDTSVYYCAAVYRVRKITNDYWGQGTQVTVSS,polyreactivity (PSR sort gate),high polyreactivity
QVQLVVSGGGLVQAGGSLRLSCSASGYTFWRYAMGWYRQAPGKERELVAAISQSGGRTYYADSVKGRYTISRDNAKNTVYLQMNSLKPEDTAVYFCATSYSQGDDYWGQGTQVTVSS,polyreactivity (PSR sort gate),high polyreactivity
QVQLVVSGGGLVQEGGSLRLSCAASGGLFSLYAMGWYRQAPGKEREFVSAISFSGASTYYADSVKGRFTISRDNAKNTVSLQKNSLKPEDTSVYYCAAYWDAVGRRYTRLYYWGQGTQVTVSS,polyreactivity (PSR sort gate),low polyreactivity
QVQLVVSGGGLVQPGGSLRLSCAATGSTLNSYVMGWYRQAPGKERELVATIRSGSSTNYADSVKGRFTISRDNAKNTVYLLMNSLKPEDTAVYYFAADAYSLCYDSWGQGTLVTVSS,polyreactivity (PSR sort gate),low polyreactivity
QVQLVVSGGRLVQGAGSHRLSSAASGSIFPKYAMGWYRQAPGKERDLVATISYRGGRTYYADSVKGRFTISRDNAKNTVNLQMNCLKPEDTAVYYCNAHSQAKLDYWGQGSQVTVSS,polyreactivity (PSR sort gate),low polyreactivity
QVQLVYSGGGLVQAGGSLRLSCAASGSIFFVYAMGWYRQAPGKERELDAAITSGGSTKDADSVKGRFTISRDNAKNTVYLQMNSLKPEDTAVYYCAKDYKCIATEGAFDYWGQGTQVTVSS,polyreactivity (PSR sort gate),low polyreactivity
QVQMQEIGGGLVQASGSLRLSCAASGNIFPDYFMGWYRLAPGKEREFVANITGGSTTNYADSVKGRFTISRDNAKNTVYLQINSLKPEDTAVYYCAVNFGTEQHAYWGQGTQVTVSS,polyreactivity (PSR sort gate),high polyreactivity
QVQMQESGGGLVQAGGSLRLICAASGTISVHASMGWYRQAPGKERELVAGITDGANTYYADSVKGRFTISRDNSKNTVYLQMNSLKPEDTAVYYCAAYYGTEVHFTYWGQGTQVTVSS,polyreactivity (PSR sort gate),low polyreactivity
QVQPQESGGGLVQAGGSLRLSCAASGTIFAFQTMGWYRQAPGKERELVASITYGSSTNYADSVKGRFTISRDNAKNTVYLQMNSLKPEDTAVYYCAVPQAQYYYDYWGQGTQVTVSS,polyreactivity (PSR sort gate),high polyreactivity
QVQPQESGGGQVQAGSCLRLSCTASGYIFLYAYMGRYRQAPGKEREFVATITDGTSTYYADSVKGRFTISRNNAKNIVYLQMNSLKPEDTAVYYCAADAGGGYPGDEDWGQGTQVTVSS,polyreactivity (PSR sort gate),low polyreactivity
QVQPVESGGGLDQAGGSLRLSCAASGRILWSYAMGWYRQAPGKERELVAAIRTSGGSTYYADSVKGRFTISRDNAKNTVYLQMNSLKPEDTAVYYCAADRTLFSTVDYWGQGTQVTVSS,polyreactivity (PSR sort gate),low polyreactivity
QVQPVESGGGLVQAGGSLRLSCAASGIIFPYYAMGWYRQEPGKERELVAAISTGGSTYYADSVKGRFTISRDNAKNTVYLQMNSLKPEDTAVYCCAAATSYGKSEYDYWGQGTQVTVSS,polyreactivity (PSR sort gate),high polyreactivity
QVQQQESGGGLVQAGGSLRLSCAASGTIFQLTVMGRYRQAPGKERQLVASIDYGGNTNYADSVKGRFTISRDNAKNTVYLQMNSLKPEDTAVYYCAASSDSWTTHPYWGQGTQVTVSS,polyreactivity (PSR sort gate),low polyreactivity
QVQQQESGGGLVQAGGSLRQSYAASGYIFPSLAMGWYRQAPGKEREFVAAIGRGSTNNYADSVKGRFTISRDNAKNTAYQQMNSLKPEDTAVYYSAAAASPLTRHLYWGQGTQVNVSS,polyreactivity (PSR sort gate),low polyreactivity
QVQQVESGGGLVQAGGSLRLSCADSGRTFTLYAMGWYRQAPGKERELVAAITWRGGRTYYADSVKGRFTISRDNAKNTVYFQMNSLKPEVTEVYYCAARKYSPQLDRYGYWGQGTQVTVSS,polyreactivity (PSR sort gate),high polyreactivity
QVQQVESGGGLVQAGGSLRLSSAASGITFRYYAMGWYRQAPGKERELVAAISSTGGSSYYADSVKGRFTISRDNAKNTVYLQMNSLKPEDTAVYYCNTQYNSQYDYWGQGTQVTVSS,polyreactivity (PSR sort gate),high polyreactivity
QVQQVESGGGLVQAGGSLRLSWAASGRIFVINGMGWYRQAPGKERELVAGISSGGTTYADSVKGRFTISRDNAKNTVYLQMNSLKPEDTEVYYCAARGRYQPQFDYWGQGTQVTVSS,polyreactivity (PSR sort gate),high polyreactivity
QVQREESGGGLFQAGGTLRLSCAASGFTFVWYAMGWNRQATGKERELVAAITRSGGSTYYADSVKGRFTISRDNAKNTVYLQMNSLKPEDTAVYYCNVSYGTFPGRALFANNFYYWGQGTQVTVSS,polyreactivity (PSR sort gate),low polyreactivity
QVQREESGGGLVQAGGSLRLSCAASGRTFRYYAMGWSRQAPGKERELVAAITSGGGTNYADSVKGRFTISRDNAKNTVYLQMNSLKPEDTAVYYCAADHVYYDYDYWGQGTQVNVSS,polyreactivity (PSR sort gate),low polyreactivity
QVQRVASGGGLVQAGGSLRLSWAASGSIVVRYTMGWYRQAPGKERELVAGISSRGGSTYYADSVKGRFTISRDNAKNTVSLQLNSLTPEDTAVYYCAKERSYSRSGGTYYYWGQRTQVTVSS,polyreactivity (PSR sort gate),high polyreactivity
QVQRVDSGGGLVQAGGSLRVSCAASGFIFVANAMGGDREAPGKERELVADINRGSTYYADSVKGRFTISRDNAKNTVYLQMNSLKPEDTAVYYCAARHWRRSGIYYYWGQGTQVTVSS,polyreactivity (PSR sort gate),high polyreactivity
QVQRVESAGGLVQAGGSLRLSCAASGFILDNYAMGWYRQAPGKERELVAAISGSGGSTYYADSVKGRFTISRDNAKNTVYLQMNSLKPEDTAVYYCNRDRLLRQYDYWGQGTQVTVSS,polyreactivity (PSR sort gate),high polyreactivity
QVQRVESAGGLVQAGGSLRLSSAASGFTFRRYAMGWYRQARGKERELVARITWSGTSTDYADSEKGRFTISRDNAKNTVYLQMNSLKPEDTAVYYCAKAYTPWSGRYFAGVGYYYWGQGTQVTVSS,polyreactivity (PSR sort gate),high polyreactivity
QVQRVESAGGLVQARGSLRLSCAASGRIFYYNAMGWYRQAPGKEREFVAAITSVGSTNYADSVKGLFTISRDNAKNTVYLQMNSLKPEDTAVYYCARASAWYVTLVGKYTKYDYWGQGTQVTVSS,polyreactivity (PSR sort gate),low polyreactivity
QVQRVESGGCLVQAGGSLRLSCAASGYTFGSNAMGWYIQAPGKERELVAAITYGAGRTSYADSVKGRFTISRDNAKNTVYLQMNSLKPEDTAVYYCAAVWGYVIWVDSAVYREYDYWGQGTQVTVSS,polyreactivity (PSR sort gate),high polyreactivity
QVQRVESGGGLVQAGCRLRLSCAASGTFFMGWYRQAPWKSRELVAGISISDGSTYYADSVKGRLTISRDNAKNTVYLQMKSLKPEDTAVYYFAAVFNPTTGFDYWGQGTQVTVSS,polyreactivity (PSR sort gate),low polyreactivity
QVQRVESGGGLVQAGGILRLSCAASGSTFREYTMGWYRQAPGKEKELVAAITNSGGSTYYADSVKGRFTISRDNEKNTVYLQMNSLKPEDTAVYYCAADVGIVDYDYWGQGTQVTVSS,polyreactivity (PSR sort gate),low polyreactivity
QVQRVESGGGLVQAGGRLRLTCAASGSTFYVNAMVWYRQAPGKERELVAGISFSDGSTYYADSVKGRFTISRDNAKNTVYLQMNSLKPEDTAVYYCATVGAFDIYYGYGYWGQGTQVTVSS,polyreactivity (PSR sort gate),low polyreactivity
QVQRVESGGGLVQAGGSLLLSCAASGRIFVTYAKGWYRQAPGKERDLVASITGGGSRYYADSVKGRVTISRDKAKTTVYVQMTRLKPEDPAVNYCAAKSRSWYFGYGYWGQGTQVTVSS,polyreactivity (PSR sort gate),high polyreactivity
QVQRVESGGGLVQAGGSLLLSCAASGSILYSYPMGWYRQAPGKERELVAAITGDGASTNYADSVKGRFTISRDNAKNTDYLQMNSLKPEDTAVYYCNAGRESDDVYEGSKRIGQFDYWGQGTLVTVSS,polyreactivity (PSR sort gate),low polyreactivity
QVQRVESGGGLVQAGGSLRFSCAASGSTFSYYAMGWYSQAPGKERELVAVISRGGSTNYADSVKGRFTISRDNAKNTVYLQMNSLKPEDTAVYYCAAYVLPWRGRGQTEYGYSGQGTQVTVSS,polyreactivity (PSR sort gate),low polyreactivity
QVQRVESGGGLVQAGGSLRLSCAASGGIFDRYAMGWYRPAPGKERELVAVISGSVNTYADSVKGRFTISRDNAKNTVYLQMNSLKPEDTAVYYCATQFEGPSGFNYWGQGTQVTVSS,polyreactivity (PSR sort gate),low polyreactivity
QVQRVESGGGLVQAGGSLRLSCAASGITFGEYAMGWYSPAPGNERELVAGINWSGDGTYYADSVKGRFTISRDNEKNTVYLQMNSLKPEDTAVYYCAVDPGGGNYIYYYNEYYYWGQGTQVTLSS,polyreactivity (PSR sort gate),low polyreactivity
QVQRVESGGGLVQAGGSLRLSCAASGITFGPYAMGWYRQAPGKERELVAAITGSGGITYYADSVKGRFTISRDNAKNTVYLQMNSLKPEDTAVYYCAAEYPYVYGTYSDSYTEYDYWGQGTQLTVSS,polyreactivity (PSR sort gate),low polyreactivity
QVQRVESGGGLVQAGGSLRLSCAASGITFSRYAMGWYRPAPGKERELVAAISRSGTRTYYADSVKGRFTISRDNAKNTVYLQMNSLKPEDSAVYYCAAESFASSFDYWGQGTQVTVSS,polyreactivity (PSR sort gate),high polyreactivity
QVQRVESGGGLVQAGGSLRLSCAASGITIYHYAMGCYRQAPGKERELVAAISRSGGSTSYADSVKGRFTISRDNAKNTVYLQMNSLKPEDTAVYYFAARLVRESDPLGYWGQGTQVTVSS,polyreactivity (PSR sort gate),high polyreactivity
QVQRVESGGGLVQAGGSLRLSCAASGRIFIANAMGWYRQAPGKERELVAAISFSGGSTYYADSVKGRFTISRDHAKTTVYLQMNSLNPEDTAVYYCNALYTSYYRPSGMGYWGQGTQVTVSS,polyreactivity (PSR sort gate),high polyreactivity
